Laboratory results taken from the supplement of paper PMC10567573.
± gives the standard deviation.

Assay: protein stability index of a GFP-peptide fusion (GPS, HEK-293T) (PSI 1-6); higher = more stable
Settings: c terminus: a fixed tail appended
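Note: 24-mer peptide tiles fused after GFP, lentivirally expressed, FACS-sorted into six equal bins by GFP/DsRed ratio, decoded by Illumina sequencing, PSI is the read-weighted mean bin number.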

Sequence	protein stability index (treatment: DMSO)	protein stability index (treatment: MLN4924 1 uM, 8 h)
REKGGKVLVHCEAGISRSPTICMA [DUSP5]	2.93 ± 0.27	3.03 ± 0.38
NEGAIDCVNYEGQSAYDVADMLKQ [DLC1]	4.82 ± 0.28	4.82 ± 0.12
IIIYLGPMVLMIIVMCVQIKCFHE [CDS2]	3.13 ± 0.53	3.19 ± 0.24
KEERKTEVVMNSQQTPVGTPKDKR [PALM]	5.43 ± 0.32	5.36 ± 0.32
RDCGEEMQNGAGASRTSTIFLNGN [TNXB]	3.99 ± 0.56	4.34 ± 0.23
DGTSQSTGGSADLFGGFADFGSAA [CLINT1]	4.71 ± 0.25	4.46 ± 0.27
EDKCPGNYTNPLKVQTVIILGKVI [TMEM192]	2.47 ± 1	2.29 ± 0.37
TYKHINEVYYAKKKRRAQQAPPQD [DYRK1B]	3.7 ± 0.085	3.66 ± 0.21
ESRLKRSNPLAREIFRRHFRQLCY [ZSCAN9]	2.15 ± 0.25	2.34 ± 0.1
EVYYDGQWGTVCDDDFSIHAAHVV [LOXL2]	2.62 ± 0.31	2.6 ± 0.37
TAAFTTAKAAALSTKTPAPCSEFM [SPAG8]	3.67 ± 0.14	3.84 ± 0.24
LTDVSPEPLQALLERASATLQDLV [PRAME]	3.05 ± 0.16	3.33 ± 0.6
REDKATIKCETSPPSSPRTLRLEK [PPFIA4]	5.51 ± 0.18	5.45 ± 0.15
QDSPGPREAVSQLRELCRLWLRPE [ZNF24]	3.11 ± 0.32	2.9 ± 0.24
AATQVFFALGLGFGGVIAFSSYNK [SLC6A17]	2.64 ± 0.43	2.83 ± 0.67
DVTDEHGEREPFAETDEHTGANTK [FAM9B]	5.49 ± 0.12	5.5 ± 0.065
VSYQLADGGEPQSVQVDGQARTQK [TNXB]	5.184 ± 0.024	5.21 ± 0.1
NLLRDDRVLQNLLTIEERYLPQCS [CCND2]	2.49 ± 0.26	2.58 ± 0.35
ATGMEVGWYRPPFSRVVHLYRNGK [MOG]	3.12 ± 0.36	2.98 ± 0.14
SMHKYQPRLHIVKADENNGFGSKN [TBX5]	3.94 ± 0.4	4.24 ± 0.33
PQGAVLVQREKDLPNYNWNSFGLR [KISS1]	3.04 ± 0.17	3.13 ± 0.32
NVGLESKYLKKREDSIPLRGLSQN [SASS6]	4.34 ± 0.19	4.06 ± 0.26

Sequence	protein stability index (treatment: DMSO)	protein stability index (treatment: MLN4924 1 uM, 8 h)
DILPRWAIIGWLLTTCTSNVAASN [INTS3]	3.24 ± 0.47	3.08 ± 0.51
YDMSDTNSDPEVVNVDNLLAAAVV [C18orf25]	4.06 ± 0.35	4.02 ± 0.26
FLYMLMEYVPGGELFSYLRNRGRF [PRKX]	2.75 ± 0.29	2.42 ± 0.28
RTLSLIVCTFTYLLVGAAVFDALE [KCNK9]	2.82 ± 0.7	3.19 ± 0.81
EDEEPQEPNRLETGEAGEELDLRL [RTN2]	5.73 ± 0.12	5.52 ± 0.4
SSNLGQHQRIHTGEKPFECNECGK [ZNF232]	4.78 ± 0.22	5.01 ± 0.19
CGYEGCRYGCGHRGCGDGCCCPSC [KRTAP19-2]	3.72 ± 0.31	3.72 ± 0.39
LLQADREHLPVKPDTMEKLRTHID [DENND6A]	3.86 ± 0.36	3.92 ± 0.12
PRLHGAKAILDAEPGPRPALQPSP [TBC1D10A]	4.81 ± 0.19	4.94 ± 0.17
FDPIVLLPCDLPKVVSRAENLSVP [LPCAT4]	2.8 ± 0.2	2.87 ± 0.3
NNFSPLHLAVDKNTTCVGRYPVCK [FEM1C]	3.42 ± 0.15	3.52 ± 0.12
RAASAMQFFTKGYQETISDVLNDA [GCH1]	3.38 ± 0.12	3.53 ± 0.072
GEKPHRCPQCGKCFARKSQLTGHQ [ZNF449]	4.66 ± 0.23	4.85 ± 0.31
VSATKAEAEKDGVKVPTTLAEYCI [UBE2R2]	4.5 ± 0.33	4.5 ± 0.28
HFAAASTHGALCLELLVNNGADVN [ANKRD44]	2.73 ± 0.23	2.62 ± 0.38
RMQYAPDLMKRLRFALIPAPELVE [KLHL14]	2.25 ± 0.1	2.05 ± 0.088
VDRWPAPVPGKTLHLPIMGVVMKV [DENND6A]	2.63 ± 0.39	2.4 ± 0.36
EEEERLRREEEERRRIEEERLRLE [ACBD3]	5.61 ± 0.25	5.52 ± 0.12
LQQLLVLQPEQQLNIYKTLKTHLI [CDS1]	2.4 ± 0.55	2.17 ± 0.36
FVESSGGGSSAVGQFVSLDGAGKT [BRF1]	2.94 ± 0.52	3.44 ± 0.58
LNQGSVFQEYDTDCEVFRQRFRQF [ZNF449]	2.98 ± 0.27	3.19 ± 0.12
PPKWQIGEQEFEALMRMLDNLGYR [ADD1]	2.35 ± 0.26	2.58 ± 0.22

Sequence	protein stability index (treatment: DMSO)	protein stability index (treatment: MLN4924 1 uM, 8 h)
AVRCASGRCTVRDFIHRHCQDQNV [SDE2]	2.59 ± 0.41	2.39 ± 0.5
STDSGFCLDSPGPLDSKENLENPM [CDC25A]	5.32 ± 0.12	5.27 ± 0.14
LSASGPFESHDLLRKGFSCVKNEL [POMP]	3.37 ± 0.053	3.35 ± 0.43
DNHNLIERRRRFNINDRIKELGTL [TFE3]	3.33 ± 0.13	3.69 ± 0.22
APAGASYNPSFEDHQTLLSAAHEV [NOP53]	4.73 ± 0.14	4.71 ± 0.14
KAKRNRTCRPPSSSESSSDSDNSG [ANKRD17]	5.64 ± 0.27	5.43 ± 0.2
RYRQAGSSGPGNSQNSFLVQEVME [RPAIN]	4.17 ± 0.23	3.82 ± 0.28
IPSTQFDAAHPTNVQRLAEPSQML [CTNNB1]	4.24 ± 0.18	4.34 ± 0.09
FLIEGPLINTIRVVCASYEDYGHW [PLEKHN1]	3.56 ± 0.49	2.58 ± 0.94
YEYTSCTTFSTTSGYMEGYYTFHF [FBXO3]	3.37 ± 0.42	3.2 ± 0.31
LVNPTCQVLVKDFTFEGFSRLRFL [ZER1]	2.02 ± 0.23	2.27 ± 0.29
VETLVKKKIPIISNAMLVGDKLKF [ACSBG2]	2.27 ± 0.38	2.61 ± 0.27
EGSLCAAHLPKAQLSGYAVEATRN [FBF1]	4.01 ± 0.17	3.99 ± 0.087
RRRVPVRNLGKVVHYAKVQLRFQH [PLEKHN1]	2.35 ± 0.39	2.29 ± 0.25
QYYEACRKAAKSLIKLGLERFHGV [ACSBG2]	3.51 ± 1.3	3.45 ± 0.44
SSSLAQHQRKHAGEKPFECRQRLI [ZNF8]	3.74 ± 0.18	3.69 ± 0.17
LTFHGLILRSQLVTLLVRGVCYSE [CLCN6]	2.98 ± 0.35	3.03 ± 0.26
QLQALNRRFQQTQYLALPERAELA [DLX1]	3.05 ± 0.28	3.23 ± 0.085
SVTGLDPEARYLFLLDVIPVDGAR [TBX6]	2.15 ± 0.47	2 ± 0.13
MQAASSKMVSAEISENRKRQWPTK [SDE2]	4.33 ± 0.33	4.7 ± 0.17
GIPKGVMLSHDNITWIAGAVTKDF [ACSBG2]	2.67 ± 0.15	2.74 ± 0.15
